The values that follow come from patent US20110098212A1.

What all share (assay): cell-based or functional assay
The target in assay [1] is chemokine receptor CCR2 (human) (UniProt P41597).
Assay [2] deals with chemokine receptor CCR4 (human) (UniProt P51679).
The target in assay [3] is chemokine receptor CCR6 (human) (UniProt P51684).
Assay [4] deals with human chemokine receptor CCR5 (human) (UniProt P51681).
Assay [5] has as its target chemokine receptor CCR8 (human) (UniProt P51685).

Take “CCL2/MCP-1 (from UniProt P13500 24-99) (ligand)”: the calcium mobilisation, share of THP-1 cells responding in assay [1] was > 95%.

For “CCL17/TARC (from UniProt Q92583 24-94) (ligand)”, in assay [2], the EC50, calcium mobilisation in CCR4-CHO cells is 0.24 nM and the chemotaxis of HUT78 cells, concentration of maximal efficacy stood at 1 nM.

In the case of “CCL20/MIP-3alpha (from UniProt P78556 27-96) (ligand)”, the EC50, calcium mobilisation in CCR6-CHO cells in assay [3] was determined as 1.27 nM. “GS-U83A (from UniProt P52460 5-97) (ligand)” showed a reduction of HIV-1 JRCSF infection of CEM-NKR-CCR5-luc cells at 1 uM in assay [4] of 93%. Further, the blocking of CCL1 (1 nM) induced chemotaxis of HUT78 cells by 100 nM pre-treatment in assay [5] came out at 10%. For the substance “GSRIEGR-U83A (from UniProt P52460 5-97) (ligand)”, the blocking of CCL22 (10 nM) induced chemotaxis of HUT78 cells by 100 nM pre-treatment in assay [2] came to 25%.
